Reference: patent US10993998B2, “Determinants of cancer response to immunotherapy by PD-1 blockade” (Memorial Sloan Kettering Cancer Center, priority 2014, dated 2021)

Columns and labels:
[1] = system: stage IV non-small cell lung cancer (NSCLC) patients; assay: Clinical efficacy of pembrolizumab in NSCLC patients (protocol NCT01295827), by tumor genomic subgroup; format: in vivo, human; conditions: for ORR: all 34
Description: All patients had stage IV non-small cell lung cancer (NSCLC) and were treated at Memorial Sloan Kettering Cancer Center (n=29) or the University of California at Los Angeles (n=5) on protocol NCT01295827 (FIG. 17). All patients initiated therapy in 2012-2013 and were treated at 10 mg/kg every 2-3 weeks, except for 5 patients treated at 2 mg/kg every 3 weeks. The overall response rate and progression-free survival are reported to be similar across dose and schedules (6). All patients had consented to Institutional Review Board-approved protocols permitting tissue collection and sequencing. PD-L1 expression was assessed prospectively by immunohistochemistry using a previously validated murine anti-human anti-PD-L1 antibody (clone 22C3, Merck & Co., Inc.). Membranous expression of PD-L1 on tumor cells and infiltrating immune cells were scored. 31 (91%) scored at least 1% positive for PD-L1 expression; 2 patients were PD-L1 negative; and 1 was unknown. Smoking status was evaluated using previously completed self-reported smoking questionnaires executed as standard of care at MSKCC or review of medical records at UCLA.
Per protocol, CT scans were performed every nine weeks. Partial and complete responses were confirmed by a repeat imaging occurring at least 4 weeks after the initial identification of response; unconfirmed responses were considered stable or progressive disease dependent on results of the second CT scan. Durable clinical benefit (DCB) was defined as stable disease or partial response lasting longer than 6 months (week 27, the time of third protocol-scheduled response assessment). No durable benefit (NDB) was defined as progression of disease ≤6 months of beginning therapy. Patients who were still ongoing study therapy at the time of the data lock (Oct. 10, 2014) but who had not yet reached 6 months of follow up were considered “Not reached” (NR). These patients were not included in the analysis of DCB/NDB, but were included in assessments of objective response and progression-free survival. For patients with ongoing response to study therapy, progression free survival was censored at the date of the most recent imaging evaluation. For alive patients, overall survival was censored at the date of last known contact.
Mann-Whitney test was used to compare mutation burdens and differences in the frequency of nucleotide changes. The Log-Rank and Mantel-Haenszel tests were used to compare Kaplan-Meier survival curves. The proportion of objective responders/non-responders or DCB/NDB were compared using Fisher's Exact Test. The receiver operator characteristic (ROC) curve was generated by plotting the proportion of all DCB patients with mutation burden above any given cut point (sensitivity) against the proportion of the NDB patients that would also exceed the same cut point (1-specificity). The area under the curve and exact 95% confidence intervals are reported. Correlations between nonsynonymous mutation burden and neoantigen burden, neoantigen burden and best overall response, and frequency of neoantigen burden/nonsynonymous mutation and best overall response were calculated using Spearman correlation formula. Statistical analyses were performed using GraphPad Prism v.6 (Graphpad Prism Software, San Diego, Calif.).

[2] = system: stage IV non-small cell lung cancer (NSCLC) patients; conditions: 10 mg/kg every 2-3 weeks vs 2 mg/kg every 3 weeks; reference (6); cited from earlier work
[3] = cited from earlier work
[4] = approximately 2000 patients; cited from earlier work
CD8+ T-cells [5] = assay: MHC multimer screening of neoantigen-specific CD8+ T-cells in serially collected peripheral blood lymphocytes of a pembrolizumab responder; format: cell-based, human
Description: HLA-A restricted candidate neoantigens were synthesized in-house (Netherlands Cancer Institute) and HLA-multimers containing these peptides were produced by micro-scale parallel UV-induced peptide exchange reactions as previously described (26, 58). Briefly, peptide-MHC complexes loaded with UV-sensitive peptide were subjected to 366-nm UV light (CAMAG) for one hour at 4° C. in the presence of candidate neoantigen peptide in a 384-well plate. pMHC multimers were generated using a total of 11 different fluorescent streptavidin (SA) conjugates (Invitrogen). For each pMHC monomer, conjugation was performed with two of these fluorochromes. NaN3 (0.02% w/v) and an excess of D-biotin (26.4 mM, Sigma) were added to block residual binding sites. For T cell staining an combinatorial encoding strategy was employed to be able to analyze for reactivity against up to 47 different peptides in parallel (27). The PBMC samples were thawed, treated with DNAse for 1 h and stained with pMHC multimer panels for 15 min at 37 C. Subsequently, anti-CD8-AF700 (Invitrogen), anti-CD4-FITC (Invitrogen), anti-CD14-FITC (Invitrogen), anti-CD16-FITC (Invitrogen), anti-CD19-FITC (Invitrogen), and LIVE/DEAD Fixable IR Dead Cell Stain Kit (Invitrogen) were added for additional 20 min on ice. Data acquisition was performed on an LSR II flow cytometer (Becton Dickinson) with FACSDiva 6 software. Cutoff values for the definition of positive responses were ≥0.005% of total CD8+ cells and ≥10 events. For immunophenotypical analysis, day 44 PMLs were stained with HERC1 P3278S MHC multimers in two colors (qdot 625 (Invitrogen) and PerCPeFluor710 (ebioscience)) plus anti-CD45RA Ab (Invitrogen), anti-CCR7 Ab (BD Bioscience), anti-HLA-DR Ab (BD Bioscience), and anti-LAG-3 Ab (R&D systems). The immunophenotype of HERC1 P3278S reactive and bulk CD8+ T-cells were analyzed. Data were acquired using an LSR II flow cytometer (Becton Dickson) with FASCDiva 6 software.

CD8+ T-cells [6] = assay: Intracellular cytokine staining after re-stimulation with mutant or wild-type HERC1 peptide; format: cell-based, human; conditions: PBLs from day 63 and 297 expanded with mutant peptide, re-stimulated
Description: HERC1 P>S mutant and wild type peptides of 9 amino acids in length (Mutant: […] (SEQ ID NO: 344), Wild type: […] (SEQ ID NO: 5925)) were synthesized (GenScript Piscataway, N.J.). 1.5×10^6 patient PBMCs were cultured with 1.5×10^6 autologous PBMCs pulsed with HERC1 P>S mutant peptide in RPMI media containing 10% pooled human serum (PHS), 10 mM HEPES, 2 mM L Glutamine, and 50 μM β-mercaptoethanol supplemented with IL-15 (10 ng/ml) and IL-2 (10 IU/ml), using methods previously described (59). […] Cells were then treated with 1× Brefeldin A and monensin (BioLegend) for 4 hours, and subsequently stained with 1 μL Alexa Fluor 405-CD3 (Invitrogen), 3 μL APC-H7-CD8 (BD Bioscience), and 1 μL ECD-CD4 (Beckman Coulter). Upon subsequent washing and permeabilization, the cells were stained with the following antibodies to intracellular cytokines: 3 μL Alexa Fluor 647-IFN-γ (Biolegend), 3 μL PE-MIP-1β, and 1 μL PE-Cy7-TNF-α (BD Pharmingen). Data were acquired by flow cytometry (using CYAN flow cytometer, Summit software, Dako Cytomation California Inc., Carpinteria, Calif.). Analysis was done by FlowJo version 10.1, TreeStar, Inc. CD3+ single cell lymphocytes were gated for analysis (SS vs. FS [low, mid], FS vs. Pulse Width [all, low], and CD3 vs. “dump” channel [high, low]).

[7] = discovery cohort, high nonsynonymous burden
[8] = discovery cohort, low nonsynonymous burden
[9] = validation cohort, nonsynonymous mutation burden above the median
[10] = validation cohort, nonsynonymous mutation burden below the median
[11] = 411 patients, Trial 1, all grades

Substance: pembrolizumab
- median PFS ([1]; TH tumors): not reached
- rate of DCB ([1]; TH tumors): 77%
- median PFS ([1]; TL tumors): 3.5
- rate of DCB ([1]; TL tumors): 22%
- ORR ([1]; transversion-high (TH, smoking signature) tumors): 56%
- ORR ([1]; transversion-low (TL) tumors): 17%
- confirmed objective response rate (ORR) [1, 7]: 63%
- median PFS [1, 7]: 14.5 months
- rate of durable clinical benefit (DCB) ([1]; discovery cohort, high nonsynonymous burden (above median of cohort)): Seventy-three
- rate of durable clinical benefit (DCB) ([1]; discovery cohort, low mutation burden): 13%
- confirmed objective response rate (ORR) [1, 8]: 0%
- median PFS [1, 8]: 3.7 months
- rate of DCB ([1]; high nonsynonymous mutation burden (>200) and some PD-L1 expression (weak/strong)): 91%
- rate of DCB ([1]; low mutation burden and some degree of PD-L1 expression): 10%
- decrease in tumor burden ([1]; one patient (Study ID #9) with exceptional response): 95%
- duration of partial response ([1]; one tumor with very low burden (56 nonsynonymous mutations)): 8 months
- median PFS ([1]; overall set, high neoantigen burden): 14.5 months
- median PFS ([1]; overall set, low neoantigen burden): 3.5 months
- rate of DCB ([1]; self-reported ever smokers): 48%
- rate of DCB ([1]; self-reported never-smokers): 33%
- tumors with no durable benefit (NDB) ([1]; tumors with ≥178 nonsynonymous mutations, both cohorts): 5 of 18
- median PFS [1, 9]: not reached
- rate of DCB [1, 9]: 83%
- median PFS [1, 10]: 3.4 months
- rate of DCB [1, 10]: 22%
- rate of durable benefit ([1]; validation cohort, tumors harboring ≥178 mutations): 75%
- rate of durable benefit ([1]; validation cohort, tumors with <178 mutations): 14%
- rate of DCB ([1]; weak PD-L1 expression, high nonsynonymous mutation burden): 75%
- rate of DCB ([1]; weak PD-L1 expression, low mutation burden): 11%
- overall response rate and progression-free survival across dose and schedules [2]: similar
- Pneumonitis, patients ([3]; 411 melanoma patients, Trial 1, all grades): 2.9%
- Colitis (including microscopic colitis), patients [3, 11]: 1%
- Hepatitis (including autoimmune hepatitis), patients [3, 11]: 0.5%
- Hyperthyroidism, patients [3, 11]: 1.2%
- Hypophysitis, patients [3, 11]: 0.5%
- Hypothyroidism, patients [3, 11]: 8.3%
- Colitis Grade 2, patients ([3]; Trial 1): 0.2%
- Colitis Grade 3, patients ([3]; Trial 1): 0.5%
- Hepatitis Grade 4, patients ([3]; Trial 1): 0.2%
- Hyperthyroidism Grade 2, patients ([3]; Trial 1): 0.5%
- Hyperthyroidism Grade 3, patients ([3]; Trial 1): 0.2%
- Hypophysitis Grade 2, patients ([3]; Trial 1): 0.2%
- Hypophysitis Grade 4, patients ([3]; Trial 1): 0.2%
- Hypothyroidism Grade 3, patients ([3]; Trial 1): 0.2%
- Pneumonitis Grade 2, patients ([3]; Trial 1): 1.9%
- Pneumonitis Grade 3, patients ([3]; Trial 1): 0.2%
- discontinuation of KEYTRUDA due to pneumonitis, patients ([3]; Trial 1): 0.7%
- median duration of colitis ([3]; Trial 1): 2.6 months
- median duration of hyperthyroidism ([3]; Trial 1): 2.8 months
- median duration of pneumonitis ([3]; Trial 1): 4.9 months
- median time to development of pneumonitis ([3]; Trial 1): 5 months
- other immune-mediated adverse reactions, patients: exfoliative dermatitis, uveitis, arthritis, myositis, pancreatitis, hemolytic anemia, partial seizures, adrenal insufficiency ([3]; Trial 1): less than 1%
- patients who received corticosteroids or discontinued KEYTRUDA for management of hypothyroidism ([3]; Trial 1): No patient
- permanent discontinuation of KEYTRUDA due to colitis, patients ([3]; Trial 1): 0.2%
- permanent discontinuation of KEYTRUDA due to hyperthyroidism, patients ([3]; Trial 1): 0.2%
- Nephritis, patients ([3]; all grades): 0.7%
- duration of hepatitis ([3]; case of Grade 4 hepatitis): 1.1 months
- Grade 2 autoimmune nephritis, patients ([3]; human, in vivo): 0.2%
- duration of autoimmune nephritis ([3]; human, in vivo): 3.2 months
- most common adverse reactions, patients: fatigue, cough, nausea, pruritus, rash, decreased appetite, constipation, arthralgia, diarrhea ([3]; human, in vivo): > 20%
- patients who fully recovered renal function ([3]; nephritis, with high-dose corticosteroids): All three
- interstitial nephritis with renal failure, patients ([3]; one Grade 3 and one Grade 4): 0.5%
- pneumonitis completely resolved ([3]; patients with Grade 2-3 pneumonitis): seven of the nine
- complete resolution of colitis ([3]; patients with colitis): All four
- complete resolution of hepatitis ([3]; patients with hepatitis): Both
- complete resolution of hyperthyroidism ([3]; patients with hyperthyroidism): All five
- additional immune-mediated adverse reactions, patients: myasthenic syndrome, optic neuritis, rhabdomyolysis [4]: less than 1%

Substance: ASNASSAAK (listed as Homo sapiens) [synthesized 9 amino acid mutant HERC1 P>S neoantigen peptide]
- HERC1 P3278S neoantigen-specific CD8+ T-cell response (MHC multimer+) (CD8+ T-cells [5]; Day 44): 0.044 % of Cd8+ T-cells
- HERC1 P3278S neoantigen-specific CD8+ T-cell response (MHC multimer+) (CD8+ T-cells [5]; at start of therapy, level of detection): < 0.005%
- HERC1 P3278S neoantigen-specific CD8+ T-cell response (MHC multimer+) (CD8+ T-cells [5]; subsequent months as tumor regression plateaued): just above background
- HERC1 P3278S neoantigen-specific CD8+ T-cell response (MHC multimer+) (CD8+ T-cells [5]; within 3 weeks post therapy initiation): 0.040 % of CD8+ T-cells
- polyfunctional CD8+ T-cells (IFNγ, CD107a, MIP113, TNFα production) in response to peptide (CD8+ T-cells [6]): detected

Substance: ASNAPSAAK (listed as Homo sapiens) [synthesized 9 amino acid wild type HERC1 peptide]
- polyfunctional CD8+ T-cells (IFNγ, CD107a, MIP113, TNFα production) in response to peptide (CD8+ T-cells [6]): not
